One assay addresses Aβ protofibrils (Homo sapiens, UniProt P05067). Description: SPR.
For the next assay, the target named is Aβ monomer (Homo sapiens, UniProt P05067). Description: SPR. On the technique in general: Surface plasmon resonance follows binding to a sensor surface in real time, without labels.

B1: Gantenerumab (antibody, V domains shown)
VH: QVELVESGGGLVQPGGSLRLSCAASGFTFSSYAMSWVRQAPGKGLEWVSAINASGTRTYYADSVKGRFTISRDNSKNTLYLQMNSLRAEDTAVYYCARGKGNTHKPYGYVRYFDVWGQGTLVTVSS
VL: DIVLTQSPATLSLSPGERATLSCRASQSVSSSYLAWYQQKPGQAPRLLIYGASSRATGVPARFSGSGSGTDFTLTISSLEPEDFATYYCLQIYNMPITFGQGTKVEIK
With B1, the dissociation constant (Kd) (in general, the concentration at which binding is half-saturated) in the assay with Aβ protofibrils was 0.0008 µM; in the assay with Aβ monomer, 34 µM.

(Values after PMC6264593 (2018).)
